Results reported in patent US20060024807.

Columns and labels:
[1] = target: T1, Known PK substrate sequence APRTPGGRR (p42/p44 MAP kinase substrate)
T1 chain: APRTPGGRR

[2] = target: T2, Known PK substrate sequence Ac-SPGRRRRK (cdc2-kinase substrate)
T2 chain: SPGRRRRK

[3] = target: T3, Known PK substrate sequence EAAEAEPAEPSSPAAEAEGA (p42/p44 MAP kinase substrate)
T3 chain: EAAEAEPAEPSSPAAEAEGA

[4] = target: T4, Known PK substrate sequence EAIYAAPFAKKK (abl tyrosine kinase substrate)
T4 chain: EAIYAAPFAKKK

[5] = target: T5, Known PK substrate sequence KKALRRQETVDAL (Ca-/calmodulin-dependent PK substrate)
T5 chain: KKALRRQETVDAL

[6] = target: T6, Known PK substrate sequence KKKKEEIYFFF (csk tyrosine kinase substrate)
T6 chain: KKKKEEIYFFF

[7] = target: T7, Known PK substrate sequence KKKLPATGDYMNMSPVGD (insulin receptor tyrosine kinase substrate)
T7 chain: KKKLPATGDYMNMSPVGD

[8] = target: T8, Known PK substrate sequence KKRFSFKKSFKLSGFSFK (protein kinase C substrate)
T8 chain: KKRFSFKKSFKLSGFSFK

[9] = target: T9, Known PK substrate sequence KKRPQRATSNVFS (myosin light chain kinase substrate)
T9 chain: KKRPQRATSNVFS

[10] = target: T10, Known PK substrate sequence LMECRNSPVAKT (p42/p44 MAP kinase substrate)
T10 chain: LMECRNSPVAKT

[11] = target: T11, Known PK substrate sequence LRRASLG (cAMP-dependent protein kinase substrate)
T11 chain: LRRASLG

[12] = target: T12, Known PK substrate sequence LSSLRASTSKSGGQK (S6 kinase substrate)
T12 chain: LSSLRASTSKSGGQK

[13] = target: T13, Known PK substrate sequence PKTPKKAKKL (p34 cdc-kinase substrate)
T13 chain: PKTPKKAKKL

[14] = target: T14, Known PK substrate sequence PLARTLSVAGLPGK (Ca-/calmodulin-dependent PK substrate)
T14 chain: PLARTLSVAGLPGK

[15] = target: T15, Known PK substrate sequence QKRPSQRSK (protein kinase C substrate)
T15 chain: QKRPSQRSK

[16] = target: T16, Known PK substrate sequence RKISASEFDRPLR (cGMP-dependent protein kinase substrate)
T16 chain: RKISASEFDRPLR

[17] = target: T17, Known PK substrate sequence RRKDLHDDEEDEAMSITA (casein kinase I substrate)
T17 chain: RRKDLHDDEEDEAMSITA

[18] = target: T18, Known PK substrate sequence RRRDDDSDDD (casein kinase II substrate)
T18 chain: RRRDDDSDDD

[19] = target: T19, Known PK substrate sequence SGQLIDSMANSFVGTRS (raf-1 kinase substrate)
T19 chain: SGQLIDSMANSFVGTRS

[20] = target: T20, Known PK substrate sequence YIYGSFK (c-src tyrosine kinase substrate)
T20 chain: YIYGSFK

B1: MLSK-1 (Murine Lymph node Stromal cell Kinase 1) (protein)
chain: MESVALLQRPSQAPSASALASESARPLADGLIKSPKPLMKKQAVKRHHHKHNLRHRYEFLETLGKGTYGKVKKARESSGRLVAIKSIRKDKIKDEQDLLHIRREIEIMSSLNHPHIIAIHEVFENSSKIVIVMEYASRGDLYDYISERPRLSERDARHFFRQIVSALHYCHQNGIVHRDLKLENILLDANGNIKIADFGLSNLYHKGKFLQTFCGSPLYASPEIVNGKPYVGPEVDSWSLGVLLYILVHGTMPFDGQDHKTLVKQISNGAYREPPKPSDACGLIRWLLMVNPTRRATLEDVASHWWVNWGYTTGVGEQEALREGGHPSGDFGRASMADWLRRSSRPLLENGAKVCSFFKQHVPGGGSTVPGLERQHSLKKSRKENDMAQNLQGDPAEDTSSRPGKSSLKLPKGILKKKSSTSSGEVQEDPQELRPVPDTPGQPVPAVSLLPRKGILKKSRQRESGYYSSPEPSESGELLDASDVFVSGDPVEQKSPQASGLLLHRKGILKLNGKFSRTALEGTTPSTFGSLDQLASSHPAARPSRPSGAVSEDSILSSESFDQLDLPERLPETPLRGCVSVDNLRGLEQPPSEGLKRWWQESLGDSCFSLTDCQEVTAAYRQALGICSKLS
In the case of B1, the Phosphorylation by MLSK-1 (% of max.) [1] is reported as 88.6 % of max, the Phosphorylation by MLSK-1 (% of max.) [2] is reported as 94.8 % of max and the Phosphorylation by MLSK-1 (% of max.) [3] is reported as 0 % of max. For the same protein, the Phosphorylation by MLSK-1 (% of max.) [4] was 69.3 % of max, the Phosphorylation by MLSK-1 (% of max.) [5] was 20.9 % of max and the Phosphorylation by MLSK-1 (% of max.) [6] was 82.1 % of max. The Phosphorylation by MLSK-1 (% of max.) [7] was 33.7 % of max, the Phosphorylation by MLSK-1 (% of max.) [8] was 100 % of max and the Phosphorylation by MLSK-1 (% of max.) [9] was 72 % of max. For the same protein, the Phosphorylation by MLSK-1 (% of max.) [10] was 3.8 % of max, the Phosphorylation by MLSK-1 (% of max.) [11] was 65.9 % of max and the Phosphorylation by MLSK-1 (% of max.) [12] was 66.6 % of max. For the same protein, the Phosphorylation by MLSK-1 (% of max.) [13] was 82 % of max, the Phosphorylation by MLSK-1 (% of max.) [14] was 10.3 % of max and the Phosphorylation by MLSK-1 (% of max.) [15] was 75 % of max. The Phosphorylation by MLSK-1 (% of max.) [16] was 62.2 % of max, the Phosphorylation by MLSK-1 (% of max.) [17] was 14.1 % of max and the Phosphorylation by MLSK-1 (% of max.) [18] was 17.6 % of max. The Phosphorylation by MLSK-1 (% of max.) [19] was 43.1 % of max and the Phosphorylation by MLSK-1 (% of max.) [20] was 66.6 % of max.
